Laboratory results as given in patent US10941182 (Amgen, dated 2021).
Starred links: 1 amine or outer side, 2 acyl side, 3 side chain; linkers in the order of their positions; H or OH if unused. Non-standard residues stand in square brackets, D forms with d. Primed or numbered codes have the meaning given here. *: point of attachment. AC4Abu = α-carboxy-4-aminobutyric acid, O=C(C(CCN[*:1])C(=O)[*:3])[*:2]; dBip = N[C@H](Cc1ccc(-c2ccccc2)cc1)C(=O)O; Oic = O=C(O)[C@@H]1C[C@@H]2CCCC[C@@H]2N1; Phe(4-Cl) = N[C@@H](Cc1ccc(Cl)cc1)C(=O)O; Phe(4-I) = N[C@@H](Cc1ccc(I)cc1)C(=O)O; γGlu = O=C(O)[C@H](CCC(=O)[*:2])N[*:1]; d(β3hF) = N[C@@H](CC(=O)O)Cc1ccccc1; NMeR = CN[C@@H](CCCNC(=N)N)C(=O)O; Palmitoyl = CCCCCCCCCCCCCCCC(=O)*; Tridecanoyl = CCCCCCCCCCCCC(=O)*; hArg = N=C(N)NCCCC[C@H](N)C(=O)O; β3hF = N[C@H](CC(=O)O)Cc1ccccc1; Cha = N[C@@H](CC1CCCCC1)C(=O)O; NMeL = CN[C@@H](CC(C)C)C(=O)O; αMeP = C[C@@]1(C(=O)O)CCCN1; AC4Abu″ = not defined here; β3hP = O=C(O)C[C@@H]1CCCN1; αMeS = C[C@](N)(CO)C(=O)O; Nle = CCCC[C@H](N)C(=O)O; AMEF = not defined here; Deg = CCC(N)(CC)C(=O)O; AEEA = NCCOCCOCC(=O)O

B1: SEQ ID NO: 82 (peptide)
peptide: Ac-[hArg][dR]Q[hArg]P[dR][NMeL]SEKG[Oic][Phe(4-I)]P[dBip]-OH
SMILES: CC(=O)N[C@@H](CCCCNC(=N)N)C(=O)N[C@H](CCCNC(=N)N)C(=O)N[C@@H](CCC(N)=O)C(=O)N[C@@H](CCCCNC(=N)N)C(=O)N1CCC[C@H]1C(=O)N[C@H](CCCNC(=N)N)C(=O)N(C)[C@@H](CC(C)C)C(=O)N[C@@H](CO)C(=O)N[C@@H](CCC(=O)O)C(=O)N[C@@H](CCCCN)C(=O)NCC(=O)N1[C@H](C(=O)N[C@@H](Cc2ccc(I)cc2)C(=O)N2CCC[C@H]2C(=O)N[C@H](Cc2ccc(-c3ccccc3)cc2)C(=O)O)C[C@@H]2CCCC[C@@H]21
B2: Apelin polypeptide SEQ ID NO: 377 (peptide)
peptide: Tridecanoyl-[γGlu][AEEA][AEEA][dQ]RP[NMeR][Cha]SHKG[Oic][Nle]P[Phe(4-Cl)]-OH
SMILES: CCCCCCCCCCCCC(=O)N[C@@H](CCC(=O)NCCOCCOCC(=O)NCCOCCOCC(=O)N[C@H](CCC(N)=O)C(=O)N[C@@H](CCCNC(=N)N)C(=O)N1CCC[C@H]1C(=O)N(C)[C@@H](CCCNC(=N)N)C(=O)N[C@@H](CC1CCCCC1)C(=O)N[C@@H](CO)C(=O)N[C@@H](Cc1c[nH]cn1)C(=O)N[C@@H](CCCCN)C(=O)NCC(=O)N1[C@H](C(=O)N[C@@H](CCCC)C(=O)N2CCC[C@H]2C(=O)N[C@@H](Cc2ccc(Cl)cc2)C(=O)O)C[C@@H]2CCCC[C@@H]21)C(=O)O
B3: Apelin polypeptide SEQ ID NO: 417 (peptide)
peptide: Tridecanoyl-[AC4Abu][AEEA][AEEA]QRP[NMeR][Cha]SHKG[β3hP][Nle]P[Phe(4-Cl)]-OH
SMILES: CCCCCCCCCCCCC(=O)NCCC(C(=O)O)C(=O)NCCOCCOCC(=O)NCCOCCOCC(=O)N[C@@H](CCC(N)=O)C(=O)N[C@@H](CCCNC(=N)N)C(=O)N1CCC[C@H]1C(=O)N(C)[C@@H](CCCNC(=N)N)C(=O)N[C@@H](CC1CCCCC1)C(=O)N[C@@H](CO)C(=O)N[C@@H](Cc1c[nH]cn1)C(=O)N[C@@H](CCCCN)C(=O)NCC(=O)N1CCC[C@H]1CC(=O)N[C@@H](CCCC)C(=O)N1CCC[C@H]1C(=O)N[C@@H](Cc1ccc(Cl)cc1)C(=O)O
B4: Apelin polypeptide SEQ ID NO: 379 (peptide)
peptide: Tridecanoyl-[γGlu][AEEA][AEEA]QRP[NMeR][Cha]SHKG[Oic][Nle]P[β3hF]-OH
SMILES: CCCCCCCCCCCCC(=O)N[C@@H](CCC(=O)NCCOCCOCC(=O)NCCOCCOCC(=O)N[C@@H](CCC(N)=O)C(=O)N[C@@H](CCCNC(=N)N)C(=O)N1CCC[C@H]1C(=O)N(C)[C@@H](CCCNC(=N)N)C(=O)N[C@@H](CC1CCCCC1)C(=O)N[C@@H](CO)C(=O)N[C@@H](Cc1c[nH]cn1)C(=O)N[C@@H](CCCCN)C(=O)NCC(=O)N1[C@H](C(=O)N[C@@H](CCCC)C(=O)N2CCC[C@H]2C(=O)N[C@H](CC(=O)O)Cc2ccccc2)C[C@@H]2CCCC[C@@H]21)C(=O)O
B5: SEQ ID NO: 81 (peptide)
peptide: Ac-[hArg][dR]Q[hArg]P[dR][NMeL]EHKG[Oic][Phe(4-I)]P[dBip]-OH
SMILES: CC(=O)N[C@@H](CCCCNC(=N)N)C(=O)N[C@H](CCCNC(=N)N)C(=O)N[C@@H](CCC(N)=O)C(=O)N[C@@H](CCCCNC(=N)N)C(=O)N1CCC[C@H]1C(=O)N[C@H](CCCNC(=N)N)C(=O)N(C)[C@@H](CC(C)C)C(=O)N[C@@H](CCC(=O)O)C(=O)N[C@@H](Cc1c[nH]cn1)C(=O)N[C@@H](CCCCN)C(=O)NCC(=O)N1[C@H](C(=O)N[C@@H](Cc2ccc(I)cc2)C(=O)N2CCC[C@H]2C(=O)N[C@H](Cc2ccc(-c3ccccc3)cc2)C(=O)O)C[C@@H]2CCCC[C@@H]21
B6: Apelin polypeptide SEQ ID NO: 551 (peptide)
peptide: Tridecanoyl-[γGlu][AEEA][AEEA][dQ]RP[NMeR][Cha]SHKG[αMeP][Nle][Phe(4-Cl)]-OH
SMILES: CCCCCCCCCCCCC(=O)N[C@@H](CCC(=O)NCCOCCOCC(=O)NCCOCCOCC(=O)N[C@H](CCC(N)=O)C(=O)N[C@@H](CCCNC(=N)N)C(=O)N1CCC[C@H]1C(=O)N(C)[C@@H](CCCNC(=N)N)C(=O)N[C@@H](CC1CCCCC1)C(=O)N[C@@H](CO)C(=O)N[C@@H](Cc1c[nH]cn1)C(=O)N[C@@H](CCCCN)C(=O)NCC(=O)N1CCC[C@@]1(C)C(=O)N[C@@H](CCCC)C(=O)N[C@@H](Cc1ccc(Cl)cc1)C(=O)O)C(=O)O
B7: SEQ ID NO: 79 (peptide)
peptide: Ac-[hArg][dR]Q[hArg]PE[NMeL]SHKG[Oic][Phe(4-I)]P[dBip]-OH
SMILES: CC(=O)N[C@@H](CCCCNC(=N)N)C(=O)N[C@H](CCCNC(=N)N)C(=O)N[C@@H](CCC(N)=O)C(=O)N[C@@H](CCCCNC(=N)N)C(=O)N1CCC[C@H]1C(=O)N[C@@H](CCC(=O)O)C(=O)N(C)[C@@H](CC(C)C)C(=O)N[C@@H](CO)C(=O)N[C@@H](Cc1c[nH]cn1)C(=O)N[C@@H](CCCCN)C(=O)NCC(=O)N1[C@H](C(=O)N[C@@H](Cc2ccc(I)cc2)C(=O)N2CCC[C@H]2C(=O)N[C@H](Cc2ccc(-c3ccccc3)cc2)C(=O)O)C[C@@H]2CCCC[C@@H]21
B8: Apelin polypeptide SEQ ID NO: 415 (peptide)
peptide: Tridecanoyl-[AC4Abu][AEEA][AEEA]QRP[NMeR][Cha]SHKG[Deg][Nle]P[Phe(4-Cl)]-OH
SMILES: CCCCCCCCCCCCC(=O)NCCC(C(=O)O)C(=O)NCCOCCOCC(=O)NCCOCCOCC(=O)N[C@@H](CCC(N)=O)C(=O)N[C@@H](CCCNC(=N)N)C(=O)N1CCC[C@H]1C(=O)N(C)[C@@H](CCCNC(=N)N)C(=O)N[C@@H](CC1CCCCC1)C(=O)N[C@@H](CO)C(=O)N[C@@H](Cc1c[nH]cn1)C(=O)N[C@@H](CCCCN)C(=O)NCC(=O)NC(CC)(CC)C(=O)N[C@@H](CCCC)C(=O)N1CCC[C@H]1C(=O)N[C@@H](Cc1ccc(Cl)cc1)C(=O)O
B9: SEQ ID NO: 83 (peptide)
peptide: Ac-[hArg][dR]Q[hArg]P[dR][NMeL]SHEG[Oic][Phe(4-I)]P[dBip]-OH
SMILES: CC(=O)N[C@@H](CCCCNC(=N)N)C(=O)N[C@H](CCCNC(=N)N)C(=O)N[C@@H](CCC(N)=O)C(=O)N[C@@H](CCCCNC(=N)N)C(=O)N1CCC[C@H]1C(=O)N[C@H](CCCNC(=N)N)C(=O)N(C)[C@@H](CC(C)C)C(=O)N[C@@H](CO)C(=O)N[C@@H](Cc1c[nH]cn1)C(=O)N[C@@H](CCC(=O)O)C(=O)NCC(=O)N1[C@H](C(=O)N[C@@H](Cc2ccc(I)cc2)C(=O)N2CCC[C@H]2C(=O)N[C@H](Cc2ccc(-c3ccccc3)cc2)C(=O)O)C[C@@H]2CCCC[C@@H]21

Assays:
Assay in all cases: cell-based or functional assay
human APJ receptor [1] = target: T1, human APJ receptor (human, UniProt P35414 1-380)
T1 sequence (looked up): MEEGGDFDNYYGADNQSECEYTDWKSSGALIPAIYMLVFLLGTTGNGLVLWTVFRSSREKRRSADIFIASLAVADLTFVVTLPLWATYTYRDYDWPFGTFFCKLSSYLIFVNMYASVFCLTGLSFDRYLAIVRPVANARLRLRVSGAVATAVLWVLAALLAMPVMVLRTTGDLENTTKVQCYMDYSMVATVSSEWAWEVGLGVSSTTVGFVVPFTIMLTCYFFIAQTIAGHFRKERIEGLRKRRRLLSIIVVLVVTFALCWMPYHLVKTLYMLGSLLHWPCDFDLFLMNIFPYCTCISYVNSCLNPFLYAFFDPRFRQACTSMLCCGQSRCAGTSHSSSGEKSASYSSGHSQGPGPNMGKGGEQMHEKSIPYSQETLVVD

rat APJ receptor [2] = target: T2, rat APJ receptor (rat, UniProt Q9JHG3 1-377)
T2 sequence (looked up): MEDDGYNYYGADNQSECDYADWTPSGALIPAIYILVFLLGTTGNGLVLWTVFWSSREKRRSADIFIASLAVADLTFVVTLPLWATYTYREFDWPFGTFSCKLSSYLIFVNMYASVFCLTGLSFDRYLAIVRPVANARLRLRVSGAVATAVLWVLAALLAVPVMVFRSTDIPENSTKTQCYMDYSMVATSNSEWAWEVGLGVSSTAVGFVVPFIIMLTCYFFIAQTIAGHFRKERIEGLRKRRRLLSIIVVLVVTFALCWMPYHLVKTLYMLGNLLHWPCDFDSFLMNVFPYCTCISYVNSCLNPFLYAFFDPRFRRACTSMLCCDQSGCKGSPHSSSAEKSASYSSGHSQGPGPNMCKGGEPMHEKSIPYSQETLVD

rat APJ receptor [3] = target: T3, rat APJ receptor (rat, UniProt Q9JHG3 1-377); remark: listed apart in the source
T3 sequence (looked up): T2 sequence (looked up)

human APJ receptor [4] = target: T4, human APJ receptor (human, UniProt P35414 1-380); remark: listed apart in the source
T4 sequence (looked up): T1 sequence (looked up)

Row | Binder | EC50 Human APJ Receptor (human APJ receptor [1]) | EC50 Rat APJ Receptor (rat APJ receptor [2]) | EC50 Rat APJ Receptor (GTPγS assay) (rat APJ receptor [3]) | EC50 Human APJ Receptor (GTPγS assay) (human APJ receptor [4])
1 | XXXQRPRLSHKGPXPF ({Acetyl-NH}[AC4Abu][Aeea][Aeea]QRP[NMeArg]LSHKGP[Nle]P[4-Cl-F]{COOH}) [SEQ ID NO: 88] | 0.22 nM | 0.388 nM | – | –
2 | XXXQRPRLSHKGPXPF ({Decanoyl}[AC4Abu][Aeea][Aeea]QRP[NMeArg]LSHKGP[Nle]P[4-Cl-F]{COOH}) [SEQ ID NO: 494] | 0.0221 nM | – | – | –
3 | B1 | 23.2 nM | 53.9 nM | – | –
4 | B2 | – | – | 0.447 nM | 0.388 nM
5 | Ac-[hArg]Q[hArg]P[NMeR][Cha]SHKG[Oic][Nle]P[Phe(4-Cl)]-OH [SEQ ID NO: 60] | 0.224 nM | 4.48 nM | – | –
6 | XXXQRPRLSHKGPXPF ({hexanoyl}[AC4Abu][Aeea][Aeea]QRP[NMeArg]LSHKGP[Nle]P[4-Cl-F]{COOH}) [SEQ ID NO: 492] | 0.0376 nM | – | – | –
7 | B3 | – | – | 8.1 nM | 5.99 nM
8 | B4 | – | – | 8.38 nM | 7.52 nM
9 | B5 | 83.8 nM | 70.6 nM | – | –
10 | B6 | – | – | 1.15 nM | 0.235 nM
11 | B7 | 0.678 nM | 0.341 nM | – | –
12 | B8 | – | – | 4.01 nM | 3.92 nM
13 | Ac-[hArg]EQ[hArg]P[dR][NMeL]SHKG[Oic][Phe(4-I)]P[dBip]-OH [SEQ ID NO: 76] | 1.84 nM | 0.994 nM | – | –
14 | Palmitoyl-[AC4Abu″][AEEA][AEEA][dQ]RP[NMeR][Cha][αMeS]HKG[Oic][Nle][β3hP][d(β3hF)]-OH (reading uncertain) [SEQ ID NO: 642] | 0.332 nM | – | – | –
15 | Palmitoyl-[AC4Abu″][AEEA][AEEA][dQ]RP[NMeR][Cha]SHKG[Oic][Nle]P[AMEF]-OH (reading uncertain) [SEQ ID NO: 606] | 0.307 nM | – | – | –
16 | B9 | 54.5 nM | 84.7 nM | – | –
